A short description of data set [1]: In vitro glycosyl transferase performance, purified enzymes, % conversion of cannabinoids to cannabinoid glycosides. Type of data set: biochemical. To be noted: for Conversion % (CBD to the glycoside): acceptor CBD; for % conversion of CBD to OB9 (CBD-1′-O-β-D-xyloside): Table 26; for % conversion of CBDA to OB31 (CBDA-1′-O-β-D-glucoside): Table 37; for % conversion, 11-nor-9-carboxy-THC to OB41 (11-nor-9-carboxy-THC-1′-O-β-D-glucoside): substrate 11-nor-9-carboxy-THC, product OB41; for % conversion, CBG to OB33 (CBG-1′-O-β-D-glucosyl-3′-O-β-D-glucoside): product OB33; for % conversion, CBN to OB23 (CBN-1′-O-β-D-di-glucoside): substrate CBN, product OB23; for % conversion, THC to OB20 (THC-1′-O-β-D-glucoside): substrate THC, product OB20; for % conversion of CBDV to OB24 (CBDV-1′-O-β-D-glucoside): Table 33. The procedure: For in vitro studies of glycosyl transferase performance in glycosylating cannabinoids, purified Glycosyl transferases were prepared as follows:
5 mL of 2× concentrated LB medium+Ampicillin (50 μg/m L) was inoculated with E. coli XJb (DE3) strains expressing a glycosyl transferase of interest and incubated overnight at 30° C. with shaking. The following day, cell cultures were transferred into 500 mL of 2× concentrated LB medium+Ampicillin (50 μg/mL) and incubated overnight at 30° C. with shaking. The following day, the cell cultures were transferred to 1 L of 2× concentrated LB medium+Ampicillin (50 μg/mL)+3 mM arabinose+0.1 mM IPTG. Cells were incubated for 24 h at 20° C. with shaking. The following day, the cells were collected by centrifugation at 46500×g for 10 mins at 4° C. Cells were resuspended in 20 mL ice-cold GT buffer (50 mM Tris-HCl pH7.4+1 mM phenylmethanesulfonyl fluoride+1 cOmplete™, mini, EDTA-free Protease Inhibitor Cocktail tablet (Roche)). The resuspended material was transferred to a 50 mL falcon tube and kept at −80° C. for at least 15 mins. Falcon tubes were then thawed at room temperature, as the tubes were thawing the following reagents were added; 2.6 mM MgCl2, 1 mM CaCl2, 250 μL of a 1.4 mg/ml DNase solution (Sigma) dissolved in MilliQ water. Tubes were gently inverted to mix then were incubated for 5 mins at 37° C. Binding buffer was then added to the tubes (50 mM Tris-HCl pH7.4, 10 mM imidazole, 500 mM NaCl. 11.25 mL MilliQ water) and the pH adjusted to 7.4 with HCl. The mix was centrifuged at 15550×g for 15 mins at 4° C., the supernatant transferred to a fresh 50 mL falcon tubes and centrifuged again to remove any remaining cellular debris at 48400×g for 20 minutes at 4° C. While the enzyme prep was centrifuging, 3 mL of HIS-Select (available from Sigma P6611) column material was added to a fresh 50 mL tube and washed by adding MilliQ water up to 50 mL, centrifuging at 2000×g for 2 mins and discarding the supernatant. This washing step was repeated. Finally, MilliQ water was added to the HIS-Select material to an approximate 50% volume. Collected supernatant from the centrifuged enzyme preparation was transferred to the tube containing the HIS-Select material through a Miracloth (available from Merck Millipore), and then incubated at 4° C. with gently shaking by inversion for 2 h. After 2 h the mix was centrifuged at 2000×g for 4 minutes at 4° C. and the supernatant discarded. The remaining HIS-Select material was washed twice with 1× binding buffer (50 mM Tris-HCl, 0.5M NaCl, 10 mM Imidazole, pH 7.4) with centrifugation at 2000×g for 4 minutes at 4° C. The HIS-Select material was resuspended in 5 mL 1× binding buffer and transferred to a Poly-Prep®Chromatography Column (available from BioRad, 7311550). The HIS-Select material was kept at 4° C. and washed twice with 1× binding buffer by filling up the column and allowing it to drip through. Finally, purified Glycosyl transferases were eluted from the HIS-Select material by adding 7.5 mL of elution buffer (50 mM Tris-HCl, 500 mM Imidazole, pH7.4) and collecting the flow through. Enzymes were used immediately in in vitro enzyme assays or stored at −20° C. in 50% glycerol until needed.
In vitro conversion of various cannabinoids to cannabinoid glycosides was carried out according to table 21. Alkaline phosphatase was provided by New England Biolabs (M0371S). Cannabinoids were dissolved in methanol. The UDP-sugar (e.g. UDP-glucose) was provided by a commercial supplier (e.g. Sigma) or produced by in vitro enzymatic conversion from a commercially available UDP-sugar as shown in Example 21.
The reaction mixture was scaled up or down as required. The reaction mixture was incubated without shaking at 30° C. for 24 hours. Extraction and analysis were performed as described above for this example. […]

A short description of data set [2]: In vitro enzymatic cascade converting sucrose and CBD to CBD glycosides. It counts as biochemical. To be noted: enzymes added: GmSuSy. The text has this: In the previous examples, in vitro glycosyl transferase assays required the addition of an “activated” sugar (e.g. UDP-glucose), which is typically an extremely expensive reagent, furthermore, other activated sugars e.g. UDP-rhamnose are not available commercially and must be custom synthesized at high-cost and difficulty. […] To facilitate the low-cost production of cannabinoid glycosides not only with glucose, but with alternative sugars, an enzymatic cascade was set up to convert cannabinoids and the simple sugar sucrose into various cannabinoid glycosides. The cascade is divided into 3 steps, in step 1 sucrose and uridine diphosphate (UDP) is converted to UDP-glucose by GmSuSy (SEQ ID NO: 209, 210), additionally generating fructose as a bi-product. In step 2, UDP-glucose is interconverted to alternative UDP-sugars using a range of enzymes. For example, conversion of UDP-glucose to UDP-galactose by BsGa/E, multiple enzymes can also be used to produce UDP-sugars via other UDP-sugar intermediates. For example, conversion of UDP-glucose to UDP-glucuronic acid by AtUGDH1 combined with conversion of UDP-glucuronic acid to UDP-xylose by AtUXS3. In step 3, glycosyl transferases convert the activated sugar and a cannabinoid acceptor to the corresponding cannabinoid glycoside. For example, conversion of UDP-rhamnose and CBD to CBD-1′-O-β-D-rhamnoside (OB13) by Cs73Y (SEQ ID NO: 157, 158).
Enzymes were purified and the in vitro assay performed as described in Example 13 and the reaction mixture set up as shown in table 57. Enzymes and co-factors were added as required for each individual reaction. Samples were extracted and analyzed as stated above.

Setting [3] is: substrate CBG, glycosyl transferase in vitro.

On to `C=C(C)C1CCC(C)=CC1c1c(O)cc(CCCCC)cc1OC1OC(C)C(O)C(O)C1O` [OB13, CBD-1′-O-α-L-rhamnoside], for which the “Conversion % (CBD to the glycoside)” value in data set [1] (UDP-Rhamnose, enzyme PL-342(Cp73B_GA)) is 5.7%. In addition, in data set [2] (AtRHM2, Cs73Y), the “% Conversion of CBD and sucrose to CBD glycoside” value is 15.2%.
Turning to `C=C(C)[C@@H]1CCC(C)=C[C@H]1c1c(O[C@@H]2OC[C@@H](O)[C@H](O)[C@H]2O)cc(CCCCC)cc1O[C@@H]1OC[C@@H](O)[C@H](O)[C@H]1O` [OB10, CBD-1′-O-β-D-xylosyl-3′-O-β-D-xyloside], in data set [1] (UDP-Xylose, enzyme PL-214(Cs73Y_GA)), the “Conversion % (CBD to the glycoside)” value came to 97.4%. Moreover, the “% Conversion of CBD and sucrose to CBD glycoside” value in data set [2] (AtUGDH1, AtUXS3, Cs73Y) is listed as 72.3%.

B1: PL-214(Cs73Y_GA) (protein)
chain: MGSEGRQLHIFMFPFMAHGHMIPIVDMAKLFASRGIKITIVTTPLNSISISKSLHNCSPNSLIQLLILKFPAAEAGLPDGCENADSIPSMDLLPKFFEAVSLLQPPFEEALHNNRPDCLISDMFFPWTNDVADRVGIPRLIFHGTSCFSLCSSEFMRLHKPYQHVSSDTEPFTIPYLPGDIKLTKMKLPIFVRENSENEFSKFITKVKESESFCYGVVVNSFYELEAEYVDCYKDVLGRKTWTIGPLSLTNTKTQEITLRGRESAIDEHECLKWLDSQKPNSVVYVCFGSLAKFNSAQLKEIAIGLEASGKKFIWVVRKGKGEEEEEEQNWLPEGYEERMEGTGLIIRGWAPQVLILDHPSVGGFVTHCGWNSTLEGVAAGVPMVTWPVGAEQFYNEKLVTEVLKTGVGVGVQKWAPGVGDFIESEAVEKAIRRIMEKEGEEMRNRAIELGKKAKWAVGEEGSSYSNLDALIEELKSLAF
Regarding B1, the “% conversion of CBD to OB13 (CBD-1′-O-α-L- rhamnoside)” value in data set [1] (glycosyl transferase in vitro, Table 25) is 4.4%. Moreover, in data set [1] (glycosyl transferase in vitro), the “% conversion of CBD to OB9 (CBD-1′-O-β-D-xyloside)” value was 6.9%; the “% conversion of CBDA to OB31 (CBDA-1′-O-β-D-glucoside)” value stood at 98.6%; the “% conversion, 11-nor-9-carboxy-THC to OB41 (11-nor-9-carboxy-THC-1′-O-β-D-glucoside)” value is listed as 2.0%; the “% conversion, CBN to OB23 (CBN-1′-O-β-D-di-glucoside)” value stood at 98.6%. Further, the “% conversion, THC to OB20 (THC-1′-O-β-D-glucoside)” value in data set [1] (glycosyl transferase in vitro) came to 29.5%. Also, in data set [1] (glycosyl transferase in vitro, Table 27), the “% conversion of CBD to OB6 (CBD-1′-O-β-D-glucosyl-3′-O-β-D-glucoside)” value is recorded as 95.8%. In data set [1] (glycosyl transferase in vitro, Table 28), the “% conversion of CBD to OB10 (CBD-1′-O-β-D-xylosyl-3′-O-β-D-xyloside)” value was determined as 98.5%. For the same molecule, the “% conversion of CBD to OB7 (CBD-1′-O-β-D-tri-glucoside)” value in data set [1] (glycosyl transferase in vitro, Table 29) worked out at 27.3%. For the same molecule, the “% conversion of CBD to OB8 (CBD-1′-O-β-D-glucosyl-3′-O-β-D-di-glucoside)” value in data set [1] (glycosyl transferase in vitro, Table 30) stood at 12.3%. Moreover, the “% conversion of CBDV to OB25 (CBDV-1′-O-β-O-glucosyl-3′-O-β-D-glucoside)” value in data set [1] (glycosyl transferase in vitro, Table 34) is 91.0%. Further, in data set [1] (setting [3]), the “% conversion, CBG to OB33 (CBG-1′-O-β-D-glucosyl-3′-O-β-D-glucoside)” value is on record as 100.0%.

B2: PL-28(At72B1_GA) (protein, UniProt Q9M156 1-480, looked up)
UDP-glycosyltransferase 72B1: MEESKTPHVAIIPSPGMGHLIPLVEFAKRLVHLHGLTVTFVIAGEGPPSKAQRTVLDSLPSSISSVFLPPVDLTDLSSSTRIESRISLTVTRSNPELRKVFDSFVEGGRLPTALVVDLFGTDAFDVAVEFHVPPYIFYPTTANVLSFFLHLPKLDETVSCEFRELTEPLMLPGCVPVAGKDFLDPAQDRKDDAYKWLLHNTKRYKEAEGILVNTFFELEPNAIKALQEPGLDKPPVYPVGPLVNIGKQEAKQTEESECLKWLDNQPLGSVLYVSFGSGGTLTCEQLNELALGLADSEQRFLWVIRSPSGIANSSYFDSHSQTDPLTFLPPGFLERTKKRGFVIPFWAPQAQVLAHPSTGGFLTHCGWNSTLESVVSGIPLIAWPLYAEQKMNAVLLSEDIRAALRPRAGDDGLVRREEVARVVKGLMEGEEGKGVRNKMKELKEAACRVLKDDGTSTKALSLVALKWKAHKKELEQNGNH
With B2, in data set [1] (glycosyl transferase in vitro), the “% conversion of CBDV to OB24 (CBDV-1′-O-β-D-glucoside)” value came out at 9.9% and the “% conversion, 11-nor-9-carboxy-THC to OB41 (11-nor-9-carboxy-THC-1′-O-β-D-glucoside)” value is on record as 0.9%.

B3: PL-182(Ha88B_2_GA) (protein)
chain: MESSTVVMYPSPGIGHLVSMVELGKLIHTHHPSLSVIILILTAPYETGATGKYINTVSATTPAITFHHLPAIALPPDFSSEFIDLAFGLPELYNSVVHNTLVAISQKSTIKAVILDFFSNAAFQVSTNLSLPTYYFFTSGTFGLCAFLYLTTLHKTTSKSIKDLNTLLDFPGVPPIHSSHMPTAIFDRESNSYKNFMKTSNNMAKCSGIIVNSFLELEERAVATLRDGKCITDGPTPPIYFIGPLIASGSQVDPNENECLKWLKTQPSKSVVFLCFGSMGVFEKEQLKEIAVGLERSGQRFLWVVRNPPLESSSGAKEFELDDILPEGFLTRTKDKGLVVKNWAPQPAILGHESVGGFVSHCGWNSSLEAVVSGVPMVAWPLYAEQQMNRVYLVEEIKVALWLRMSADGFVGAEAVEETVRKLMEGEEGRAVREQILEMSGGAKAAVEDGGSSRLDFLKLTRPWTDQ
As for B3, the “% conversion of CBD to OB1 (CBD-1′-O-β-D-glucoside)” value in data set [1] (glycosyl transferase in vitro, Table 24) is 50.0%. Moreover, in data set [1] (glycosyl transferase in vitro), the “% conversion of CBD to OB9 (CBD-1′-O-β-D-xyloside)” value worked out at 9.6%; the “% conversion of CBDV to OB24 (CBDV-1′-O-β-D-glucoside)” value worked out at 89.0%; the “% conversion of CBDA to OB31 (CBDA-1′-O-β-D-glucoside)” value is reported as 15.5%; the “% conversion, CBN to OB23 (CBN-1′-O-β-D-di-glucoside)” value is given as 68.0%. Further, the “% conversion, THC to OB20 (THC-1′-O-β-D-glucoside)” value in data set [1] (glycosyl transferase in vitro) was found to be 80.3%. For the same molecule, in data set [1] (substrate CBG, product OB32, glycosyl transferase in vitro), the “% conversion, CBG to OB32 (CBG-1′-O-β-D-glucoside)” value turned out to be 82.9%. Further, the “% conversion, CBG to OB33 (CBG-1′-O-β-D-glucosyl-3′-O-β-D-glucoside)” value in data set [1] (setting [3]) is reported as 26.5%.

(Values after US20220290200A1, “GENETICALLY MODIFIED HOST CELLS PRODUCING GLYCOSYLATED CANNABINOIDS” (OCTARINE BIO IVS, priority 2019, published 2022).)
